Source: US20260001928A1 (CORTERIA PHARMACEUTICALS, priority 2022, published 2026)
*1 amine or outer side, *2 acyl side, *3 side chain or, on linkers, in order; H or OH if unused. Where no end group is shown, it is not given here. Side-chain parts run from the residue outwards. [ ]: non-standard residue; d: D form. The star is where a group is joined. C18 diacid = O=C(O)CCCCCCCCCCCCCCCCC(=O)*; C16 diacid = O=C(O)CCCCCCCCCCCCCCC(=O)*; γGlu = O=C(O)[C@H](CCC(=O)[*:2])N[*:1]; NMeI = CC[C@H](C)[C@H](NC)C(=O)O; Isovaleryl = CC(C)CC(=O)*; Pentanoyl = CCCCC(=O)*; Aib = CC(C)(N)C(=O)O

T1: CRF1R receptor (UniProt P34998 24-415, limits assumed)
T1 sequence (looked up): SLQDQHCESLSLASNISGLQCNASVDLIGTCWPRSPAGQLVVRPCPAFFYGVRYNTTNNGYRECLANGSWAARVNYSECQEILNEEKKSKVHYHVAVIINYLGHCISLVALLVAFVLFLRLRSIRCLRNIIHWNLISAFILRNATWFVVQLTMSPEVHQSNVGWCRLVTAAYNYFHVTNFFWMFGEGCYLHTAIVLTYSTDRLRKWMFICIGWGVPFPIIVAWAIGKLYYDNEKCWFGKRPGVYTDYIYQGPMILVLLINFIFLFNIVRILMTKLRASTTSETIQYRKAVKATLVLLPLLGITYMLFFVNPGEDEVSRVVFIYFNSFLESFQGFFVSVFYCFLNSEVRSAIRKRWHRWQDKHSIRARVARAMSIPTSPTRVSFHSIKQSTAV

B1: SEQ ID NO 193 (peptide)
peptide: Pentanoyl-VLSLD[dV]PIKLK([γGlu-C18 diacid])KILLEQEKQKKQREQAETN[Aib]QILAQV-NH2
SMILES: CCCCC(=O)N[C@H](C(=O)N[C@@H](CC(C)C)C(=O)N[C@@H](CO)C(=O)N[C@@H](CC(C)C)C(=O)N[C@@H](CC(=O)O)C(=O)N[C@@H](C(=O)N1CCC[C@H]1C(=O)N[C@H](C(=O)N[C@@H](CCCCN)C(=O)N[C@@H](CC(C)C)C(=O)N[C@@H](CCCCNC(=O)CC[C@H](NC(=O)CCCCCCCCCCCCCCCCC(=O)O)C(=O)O)C(=O)N[C@@H](CCCCN)C(=O)N[C@H](C(=O)N[C@@H](CC(C)C)C(=O)N[C@@H](CC(C)C)C(=O)N[C@@H](CCC(=O)O)C(=O)N[C@@H](CCC(N)=O)C(=O)N[C@@H](CCC(=O)O)C(=O)N[C@@H](CCCCN)C(=O)N[C@@H](CCC(N)=O)C(=O)N[C@@H](CCCCN)C(=O)N[C@@H](CCCCN)C(=O)N[C@@H](CCC(N)=O)C(=O)N[C@@H](CCCNC(=N)N)C(=O)N[C@@H](CCC(=O)O)C(=O)N[C@@H](CCC(N)=O)C(=O)N[C@@H](C)C(=O)N[C@@H](CCC(=O)O)C(=O)N[C@H](C(=O)N[C@@H](CC(N)=O)C(=O)NC(C)(C)C(=O)N[C@@H](CCC(N)=O)C(=O)N[C@H](C(=O)N[C@@H](CC(C)C)C(=O)N[C@@H](C)C(=O)N[C@@H](CCC(N)=O)C(=O)N[C@H](C(N)=O)C(C)C)[C@@H](C)CC)[C@@H](C)O)[C@@H](C)CC)[C@@H](C)CC)C(C)C)C(C)C
B2: SEQ ID NO 190 (peptide)
peptide: Ac-IVLSLD[dV]PIKLK([γGlu-C18 diacid])KILLEQEKQK[Aib]QREQAETN[Aib]QILAQV-NH2
SMILES: CC[C@H](C)[C@H](NC(C)=O)C(=O)N[C@H](C(=O)N[C@@H](CC(C)C)C(=O)N[C@@H](CO)C(=O)N[C@@H](CC(C)C)C(=O)N[C@@H](CC(=O)O)C(=O)N[C@@H](C(=O)N1CCC[C@H]1C(=O)N[C@H](C(=O)N[C@@H](CCCCN)C(=O)N[C@@H](CC(C)C)C(=O)N[C@@H](CCCCNC(=O)CC[C@H](NC(=O)CCCCCCCCCCCCCCCCC(=O)O)C(=O)O)C(=O)N[C@@H](CCCCN)C(=O)N[C@H](C(=O)N[C@@H](CC(C)C)C(=O)N[C@@H](CC(C)C)C(=O)N[C@@H](CCC(=O)O)C(=O)N[C@@H](CCC(N)=O)C(=O)N[C@@H](CCC(=O)O)C(=O)N[C@@H](CCCCN)C(=O)N[C@@H](CCC(N)=O)C(=O)N[C@@H](CCCCN)C(=O)NC(C)(C)C(=O)N[C@@H](CCC(N)=O)C(=O)N[C@@H](CCCNC(=N)N)C(=O)N[C@@H](CCC(=O)O)C(=O)N[C@@H](CCC(N)=O)C(=O)N[C@@H](C)C(=O)N[C@@H](CCC(=O)O)C(=O)N[C@H](C(=O)N[C@@H](CC(N)=O)C(=O)NC(C)(C)C(=O)N[C@@H](CCC(N)=O)C(=O)N[C@H](C(=O)N[C@@H](CC(C)C)C(=O)N[C@@H](C)C(=O)N[C@@H](CCC(N)=O)C(=O)N[C@H](C(N)=O)C(C)C)[C@@H](C)CC)[C@@H](C)O)[C@@H](C)CC)[C@@H](C)CC)C(C)C)C(C)C
B3: SEQ ID NO 192 (peptide)
peptide: [NMeI]VLSLD[dV]PIGLK([γGlu-C18 diacid])KILLEQEKQKKQREQAETN[Aib]QILAQV-NH2
modifications: N-terminus assumed
SMILES: CC[C@H](C)[C@H](NC)C(=O)N[C@H](C(=O)N[C@@H](CC(C)C)C(=O)N[C@@H](CO)C(=O)N[C@@H](CC(C)C)C(=O)N[C@@H](CC(=O)O)C(=O)N[C@@H](C(=O)N1CCC[C@H]1C(=O)N[C@H](C(=O)NCC(=O)N[C@@H](CC(C)C)C(=O)N[C@@H](CCCCNC(=O)CC[C@H](NC(=O)CCCCCCCCCCCCCCCCC(=O)O)C(=O)O)C(=O)N[C@@H](CCCCN)C(=O)N[C@H](C(=O)N[C@@H](CC(C)C)C(=O)N[C@@H](CC(C)C)C(=O)N[C@@H](CCC(=O)O)C(=O)N[C@@H](CCC(N)=O)C(=O)N[C@@H](CCC(=O)O)C(=O)N[C@@H](CCCCN)C(=O)N[C@@H](CCC(N)=O)C(=O)N[C@@H](CCCCN)C(=O)N[C@@H](CCCCN)C(=O)N[C@@H](CCC(N)=O)C(=O)N[C@@H](CCCNC(=N)N)C(=O)N[C@@H](CCC(=O)O)C(=O)N[C@@H](CCC(N)=O)C(=O)N[C@@H](C)C(=O)N[C@@H](CCC(=O)O)C(=O)N[C@H](C(=O)N[C@@H](CC(N)=O)C(=O)NC(C)(C)C(=O)N[C@@H](CCC(N)=O)C(=O)N[C@H](C(=O)N[C@@H](CC(C)C)C(=O)N[C@@H](C)C(=O)N[C@@H](CCC(N)=O)C(=O)N[C@H](C(N)=O)C(C)C)[C@@H](C)CC)[C@@H](C)O)[C@@H](C)CC)[C@@H](C)CC)C(C)C)C(C)C
B4: SEQ ID NO 9 (peptide)
peptide: Isovaleryl-VLSLD[dV]PIKLK([γGlu-C16 diacid])QILLKQERQKKQREQAEKNKQILEQV-NH2
SMILES: CC[C@H](C)[C@H](NC(=O)[C@H](CCC(N)=O)NC(=O)[C@H](CCCCNC(=O)CC[C@H](NC(=O)CCCCCCCCCCCCCCC(=O)O)C(=O)O)NC(=O)[C@H](CC(C)C)NC(=O)[C@H](CCCCN)NC(=O)[C@@H](NC(=O)[C@@H]1CCCN1C(=O)[C@H](NC(=O)[C@H](CC(=O)O)NC(=O)[C@H](CC(C)C)NC(=O)[C@H](CO)NC(=O)[C@H](CC(C)C)NC(=O)[C@@H](NC(=O)CC(C)C)C(C)C)C(C)C)[C@@H](C)CC)C(=O)N[C@@H](CC(C)C)C(=O)N[C@@H](CC(C)C)C(=O)N[C@@H](CCCCN)C(=O)N[C@@H](CCC(N)=O)C(=O)N[C@@H](CCC(=O)O)C(=O)N[C@@H](CCCNC(=N)N)C(=O)N[C@@H](CCC(N)=O)C(=O)N[C@@H](CCCCN)C(=O)N[C@@H](CCCCN)C(=O)N[C@@H](CCC(N)=O)C(=O)N[C@@H](CCCNC(=N)N)C(=O)N[C@@H](CCC(=O)O)C(=O)N[C@@H](CCC(N)=O)C(=O)N[C@@H](C)C(=O)N[C@@H](CCC(=O)O)C(=O)N[C@@H](CCCCN)C(=O)N[C@@H](CC(N)=O)C(=O)N[C@@H](CCCCN)C(=O)N[C@@H](CCC(N)=O)C(=O)N[C@H](C(=O)N[C@@H](CC(C)C)C(=O)N[C@@H](CCC(=O)O)C(=O)N[C@@H](CCC(N)=O)C(=O)N[C@H](C(N)=O)C(C)C)[C@@H](C)CC
B5: SEQ ID NO 191 (peptide)
peptide: Ac-IVLSLD[dV]PIGLK([γGlu-C18 diacid])KILLEQEKQKKQREQAETN[Aib]QILAQV-NH2
SMILES: CC[C@H](C)[C@H](NC(C)=O)C(=O)N[C@H](C(=O)N[C@@H](CC(C)C)C(=O)N[C@@H](CO)C(=O)N[C@@H](CC(C)C)C(=O)N[C@@H](CC(=O)O)C(=O)N[C@@H](C(=O)N1CCC[C@H]1C(=O)N[C@H](C(=O)NCC(=O)N[C@@H](CC(C)C)C(=O)N[C@@H](CCCCNC(=O)CC[C@H](NC(=O)CCCCCCCCCCCCCCCCC(=O)O)C(=O)O)C(=O)N[C@@H](CCCCN)C(=O)N[C@H](C(=O)N[C@@H](CC(C)C)C(=O)N[C@@H](CC(C)C)C(=O)N[C@@H](CCC(=O)O)C(=O)N[C@@H](CCC(N)=O)C(=O)N[C@@H](CCC(=O)O)C(=O)N[C@@H](CCCCN)C(=O)N[C@@H](CCC(N)=O)C(=O)N[C@@H](CCCCN)C(=O)N[C@@H](CCCCN)C(=O)N[C@@H](CCC(N)=O)C(=O)N[C@@H](CCCNC(=N)N)C(=O)N[C@@H](CCC(=O)O)C(=O)N[C@@H](CCC(N)=O)C(=O)N[C@@H](C)C(=O)N[C@@H](CCC(=O)O)C(=O)N[C@H](C(=O)N[C@@H](CC(N)=O)C(=O)NC(C)(C)C(=O)N[C@@H](CCC(N)=O)C(=O)N[C@H](C(=O)N[C@@H](CC(C)C)C(=O)N[C@@H](C)C(=O)N[C@@H](CCC(N)=O)C(=O)N[C@H](C(N)=O)C(C)C)[C@@H](C)CC)[C@@H](C)O)[C@@H](C)CC)[C@@H](C)CC)C(C)C)C(C)C
B6: SEQ ID NO 189 (peptide)
peptide: Ac-IVLSLD[dV]PIKLK([γGlu-C18 diacid])KILLEQEKQKAQREQAETN[Aib]QILAQV-NH2
SMILES: CC[C@H](C)[C@H](NC(C)=O)C(=O)N[C@H](C(=O)N[C@@H](CC(C)C)C(=O)N[C@@H](CO)C(=O)N[C@@H](CC(C)C)C(=O)N[C@@H](CC(=O)O)C(=O)N[C@@H](C(=O)N1CCC[C@H]1C(=O)N[C@H](C(=O)N[C@@H](CCCCN)C(=O)N[C@@H](CC(C)C)C(=O)N[C@@H](CCCCNC(=O)CC[C@H](NC(=O)CCCCCCCCCCCCCCCCC(=O)O)C(=O)O)C(=O)N[C@@H](CCCCN)C(=O)N[C@H](C(=O)N[C@@H](CC(C)C)C(=O)N[C@@H](CC(C)C)C(=O)N[C@@H](CCC(=O)O)C(=O)N[C@@H](CCC(N)=O)C(=O)N[C@@H](CCC(=O)O)C(=O)N[C@@H](CCCCN)C(=O)N[C@@H](CCC(N)=O)C(=O)N[C@@H](CCCCN)C(=O)N[C@@H](C)C(=O)N[C@@H](CCC(N)=O)C(=O)N[C@@H](CCCNC(=N)N)C(=O)N[C@@H](CCC(=O)O)C(=O)N[C@@H](CCC(N)=O)C(=O)N[C@@H](C)C(=O)N[C@@H](CCC(=O)O)C(=O)N[C@H](C(=O)N[C@@H](CC(N)=O)C(=O)NC(C)(C)C(=O)N[C@@H](CCC(N)=O)C(=O)N[C@H](C(=O)N[C@@H](CC(C)C)C(=O)N[C@@H](C)C(=O)N[C@@H](CCC(N)=O)C(=O)N[C@H](C(N)=O)C(C)C)[C@@H](C)CC)[C@@H](C)O)[C@@H](C)CC)[C@@H](C)CC)C(C)C)C(C)C

Biological target: human corticotropin-releasing factor 2a (CRF2a receptor) (human), Q13324
Assay: cell-based or functional assay

Chain of human corticotropin-releasing factor 2a (CRF2a receptor) (human), Q13324 (Q13324 20-411): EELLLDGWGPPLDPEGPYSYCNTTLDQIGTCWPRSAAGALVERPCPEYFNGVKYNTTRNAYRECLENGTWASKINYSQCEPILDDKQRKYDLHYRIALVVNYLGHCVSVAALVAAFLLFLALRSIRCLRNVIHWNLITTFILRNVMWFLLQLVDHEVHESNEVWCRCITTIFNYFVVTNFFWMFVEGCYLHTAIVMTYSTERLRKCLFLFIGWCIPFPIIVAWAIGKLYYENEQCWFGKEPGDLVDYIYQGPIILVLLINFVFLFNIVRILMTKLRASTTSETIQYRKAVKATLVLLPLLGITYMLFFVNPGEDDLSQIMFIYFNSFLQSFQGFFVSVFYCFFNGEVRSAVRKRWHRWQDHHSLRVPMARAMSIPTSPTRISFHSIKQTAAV

EC50 [nM] (cAMP)	Binder
0.17 nM	B1
0.3 nM	B2
0.11 nM	B3
0.16 nM	B4
0.18 nM	B5
0.29 nM	B6

Biological target: T1, CRF1R receptor
Assay: cell-based or functional assay

Emax (% I)	EC50	Binder
20%		B1
9%		B2
19%		B3
77%	28.2 nM	B4
54%	92.9 nM	B5
9%		B6
